Laboratory results as given in article PMC6336354, “A transient helix in the disordered region of dynein light intermediate chain links the motor to structurally diverse adaptors for cargo transport” (PLoS Biology, 2019).

B1: GST::LIC1(388–523)::6xHis (domain or fragment, human)
chain: WPTAAGRPVDASPRVPGGSPRTPNRSVSSNVASVSPIPAGSKKIDPNMKAGATSEGVLANFFNSLLSKKTGSPGGPGVSGGSPAGGAGGGSSGLPPSTKKSGQKPVLDVHAELDRITRKPVTVSPTTPTSPTEGEAS
notes: single N-terminal tryptophan added in the construct; also called LIC1-C; source: E. coli BL21, purified (glutathione agarose, Ni-NTA; dialysis or SEC); not shown: GST, N-terminal, kept; 6xHis (after linker GSGSG), C-terminal, kept
B2: GST::LIC1(440–455)::6xHis (peptide)
chain: WSEGVLANFFNSLLSKK
notes: single N-terminal tryptophan added in the construct; human dynein light intermediate chain 1 (DYNC1LI1), helix 1, residues 440-455; also called LIC1-C helix 1; GST::LIC1(440–455)::6His; source: E. coli BL21, purified (glutathione agarose, Ni-NTA; dialysis or SEC); not shown: GST, N-terminal, kept; 6xHis (after linker GSGSG), C-terminal, kept
B3: GST::LIC1(388–471)::6xHis (domain or fragment, human)
chain: WPTAAGRPVDASPRVPGGSPRTPNRSVSSNVASVSPIPAGSKKIDPNMKAGATSEGVLANFFNSLLSKKTGSPGGPGVSGGSPAG
notes: single N-terminal tryptophan added in the construct; source: E. coli BL21, purified (glutathione agarose, Ni-NTA; dialysis or SEC); not shown: GST, N-terminal, kept; 6xHis (after linker GSGSG), C-terminal, kept
B4: GST::LIC1(424–471)::6xHis (domain or fragment, human)
chain: WPAGSKKIDPNMKAGATSEGVLANFFNSLLSKKTGSPGGPGVSGGSPAG
notes: single N-terminal tryptophan added in the construct; human dynein light intermediate chain 1 (DYNC1LI1), residues 424-471; source: E. coli BL21, purified (glutathione agarose, Ni-NTA; dialysis or SEC); not shown: GST, N-terminal, kept; 6xHis (after linker GSGSG), C-terminal, kept
B5: GST::LIC1(440–471)::6xHis (domain or fragment, human)
chain: WSEGVLANFFNSLLSKKTGSPGGPGVSGGSPAG
notes: single N-terminal tryptophan added in the construct; human dynein light intermediate chain 1 (DYNC1LI1), residues 440-471; source: E. coli BL21, purified (glutathione agarose, Ni-NTA; dialysis or SEC); not shown: GST, N-terminal, kept; 6xHis (after linker GSGSG), C-terminal, kept
B6: LIC1(388–471)::6xHis (domain or fragment, human)
chain: B3 chain
notes: single N-terminal tryptophan added in the construct; source: E. coli BL21, purified (GSTrap, PreScission cleavage, second GSTrap, SEC Superdex 75); not shown: GST, N-terminal, cleaved; 6xHis (after linker GSGSG), C-terminal, kept

What was measured:
Settings in all cases: both partners purified
NIN(1–693)::Strep-tag II = molecular target: T1, NIN(1–693)::Strep-tag II (human, UniProt Q8N4C6 1-693); experiment: pull-down; GST::LIC::6xHis (50 pmol) with 50 or 250 pmol adaptor and glutathione agarose, 1 h at 4°C, 150 μL of 50 mM HEPES, 100 mM NaCl, 5 mM DTT, pH 7.5, 0.1% Tween 20; Coomassie staining and immunoblot against Strep-tag II
T1 construct: human ninein (NIN), N-terminal fragment, residues 1-693 of 2,090; also called ninein; source: E. coli Rosetta, purified (Ni-NTA, TEV cleavage, Strep-Tactin; dialysis or SEC); not shown: 6xHis::MBP, N-terminal, cleaved; Strep-tag II (after linker GSGSGR), C-terminal, kept
T1 sequence (looked up): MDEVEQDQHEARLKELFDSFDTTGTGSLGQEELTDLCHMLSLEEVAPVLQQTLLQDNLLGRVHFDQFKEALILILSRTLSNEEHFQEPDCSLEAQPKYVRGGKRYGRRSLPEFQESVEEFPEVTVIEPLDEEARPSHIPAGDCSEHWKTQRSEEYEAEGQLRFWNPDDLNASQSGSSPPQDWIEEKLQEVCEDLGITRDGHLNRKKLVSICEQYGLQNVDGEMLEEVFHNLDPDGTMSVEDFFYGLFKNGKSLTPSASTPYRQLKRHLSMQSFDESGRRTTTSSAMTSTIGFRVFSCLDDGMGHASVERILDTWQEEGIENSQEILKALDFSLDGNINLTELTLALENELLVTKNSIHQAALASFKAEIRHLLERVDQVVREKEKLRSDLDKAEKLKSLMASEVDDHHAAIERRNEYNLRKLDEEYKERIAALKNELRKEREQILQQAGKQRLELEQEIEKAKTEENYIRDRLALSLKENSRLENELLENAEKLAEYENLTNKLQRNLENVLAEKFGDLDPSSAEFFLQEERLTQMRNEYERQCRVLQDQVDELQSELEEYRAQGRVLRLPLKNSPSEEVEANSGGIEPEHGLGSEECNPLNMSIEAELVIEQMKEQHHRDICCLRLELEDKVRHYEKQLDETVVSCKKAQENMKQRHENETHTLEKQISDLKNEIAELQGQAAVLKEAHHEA

[1] = molecular target: T2, RAB11FIP3(2–756)::Strep-tag II (human, UniProt O75154 2-756); experiment: as above
T2 construct: source: E. coli BL21, purified (Ni-NTA, TEV cleavage, Strep-Tactin; dialysis or SEC); not shown: 6xHis::MBP, N-terminal, cleaved; Strep-tag II (after linker GSGSGR), C-terminal, kept
T2 sequence (looked up): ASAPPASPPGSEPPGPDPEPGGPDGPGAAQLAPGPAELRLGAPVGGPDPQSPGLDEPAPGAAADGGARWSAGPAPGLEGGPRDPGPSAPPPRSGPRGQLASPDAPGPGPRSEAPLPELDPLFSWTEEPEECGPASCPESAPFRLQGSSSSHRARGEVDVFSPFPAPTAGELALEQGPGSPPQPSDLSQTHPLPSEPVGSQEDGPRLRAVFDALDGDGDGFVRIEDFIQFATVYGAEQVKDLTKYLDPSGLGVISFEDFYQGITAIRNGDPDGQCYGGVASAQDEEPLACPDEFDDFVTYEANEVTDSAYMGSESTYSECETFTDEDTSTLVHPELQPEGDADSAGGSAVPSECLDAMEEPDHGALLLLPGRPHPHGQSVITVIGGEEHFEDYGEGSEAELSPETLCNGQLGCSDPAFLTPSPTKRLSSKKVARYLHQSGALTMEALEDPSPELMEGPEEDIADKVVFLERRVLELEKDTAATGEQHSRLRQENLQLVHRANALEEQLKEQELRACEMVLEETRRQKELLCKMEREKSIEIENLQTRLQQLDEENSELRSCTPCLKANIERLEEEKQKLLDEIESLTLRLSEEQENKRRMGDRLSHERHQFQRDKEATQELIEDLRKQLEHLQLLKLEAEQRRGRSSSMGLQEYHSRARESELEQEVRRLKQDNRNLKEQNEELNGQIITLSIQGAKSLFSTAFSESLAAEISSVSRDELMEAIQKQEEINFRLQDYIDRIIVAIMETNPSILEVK

[2] = molecular target: T3, RILP(1–401)::Strep-tag II (human, UniProt Q96NA2 1-401); experiment: SPR; Biacore X100, CM5 chip; GST::LIC1::6xHis captured by immobilised anti-GST antibody, RILP::Strep-tag II as analyte (0.3–50 μM); 25°C; 10 mM HEPES, 150 mM NaCl, 3 mM EDTA, 0.05% surfactant P20, pH 7.4; 1:1 model
T3 construct: also called RILP::Strep-tag II; source: Sf21 insect cells (baculovirus), purified (Strep-Tactin Sepharose); not shown: Strep-tag II (after linker GSGSGR), C-terminal, kept
T3 sequence (looked up): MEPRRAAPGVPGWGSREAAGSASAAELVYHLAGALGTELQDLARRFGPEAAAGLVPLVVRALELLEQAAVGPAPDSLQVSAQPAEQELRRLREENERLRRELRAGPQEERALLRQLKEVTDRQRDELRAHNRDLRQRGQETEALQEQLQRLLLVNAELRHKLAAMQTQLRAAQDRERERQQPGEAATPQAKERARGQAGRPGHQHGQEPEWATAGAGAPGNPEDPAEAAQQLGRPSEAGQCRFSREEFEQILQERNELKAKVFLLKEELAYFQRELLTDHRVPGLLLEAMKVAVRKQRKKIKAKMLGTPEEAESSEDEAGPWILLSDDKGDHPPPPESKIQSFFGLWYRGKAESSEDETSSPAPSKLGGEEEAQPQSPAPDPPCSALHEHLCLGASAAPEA

[3] = molecular target: T3, RILP(1–401)::Strep-tag II; experiment: pull-down; GST::LIC::6xHis (50 pmol) with 50 or 250 pmol adaptor and glutathione agarose, 1 h at 4°C, 150 μL of 50 mM HEPES, 100 mM NaCl, 5 mM DTT, pH 7.5, 0.1% Tween 20; Coomassie staining and immunoblot against Strep-tag II
[4] = molecular target: T4, HOOK3(2–552)::Strep-tag II (human, UniProt Q86VS8 2-552); experiment: as above
T4 construct: human Hook homolog 3 (HOOK3), residues 2-552; used for the GST pull-downs; also called Hook homolog 3; source: E. coli Rosetta, purified (Ni-NTA, TEV cleavage, Strep-Tactin; dialysis or SEC); not shown: 6xHis::MBP, N-terminal, cleaved; Strep-tag II (after linker GSGSGR), C-terminal, kept
T4 sequence (looked up): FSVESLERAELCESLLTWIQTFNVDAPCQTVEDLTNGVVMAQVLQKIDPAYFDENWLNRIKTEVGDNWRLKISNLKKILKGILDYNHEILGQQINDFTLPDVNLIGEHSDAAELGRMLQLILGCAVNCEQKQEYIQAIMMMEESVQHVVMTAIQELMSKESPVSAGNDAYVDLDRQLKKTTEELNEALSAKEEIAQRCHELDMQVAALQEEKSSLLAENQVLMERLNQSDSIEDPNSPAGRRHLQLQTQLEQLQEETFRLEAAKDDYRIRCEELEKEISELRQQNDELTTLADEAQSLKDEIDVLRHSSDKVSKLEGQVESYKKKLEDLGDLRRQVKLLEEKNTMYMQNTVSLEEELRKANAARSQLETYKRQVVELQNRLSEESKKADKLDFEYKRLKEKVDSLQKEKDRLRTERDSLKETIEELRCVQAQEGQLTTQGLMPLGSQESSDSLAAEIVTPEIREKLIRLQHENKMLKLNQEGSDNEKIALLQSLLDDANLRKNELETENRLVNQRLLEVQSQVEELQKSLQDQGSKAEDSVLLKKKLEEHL

[5] = molecular target: T5, BICD2(2–422)::Strep-tag II (human, UniProt Q8TD16 2-422); experiment: as above
T5 construct: human bicaudal D homolog 2 (BICD2), N-terminal region, residues 2-422; also called bicaudal D homolog 2; source: E. coli BL21, purified (Ni-NTA, TEV cleavage, Strep-Tactin; dialysis or SEC); not shown: 6xHis::MBP, N-terminal, cleaved; Strep-tag II (after linker GSGSGR), C-terminal, kept

[6] = molecular target: T5, BICD2(2–422)::Strep-tag II; experiment: SPR; Biacore 3000; His-tagged LIC1 immobilised on NTA chip (200–300 RU), Strep-tagged adaptor as analyte; HBS-P (10 mM HEPES, 150 mM NaCl, 0.005% surfactant P20, pH 7.4)
[7] = molecular target: T6, SPDL1(2–359)::Strep-tag II (human, UniProt Q96EA4 2-359); experiment: as above
T6 construct: human Spindly (SPDL1), N-terminal region, residues 2-359; also called Spindly; source: E. coli BL21, purified (Ni-NTA, TEV cleavage, Strep-Tactin; dialysis or SEC); not shown: 6xHis::MBP, N-terminal, cleaved; Strep-tag II (after linker GSGSGR), C-terminal, kept
T6 sequence (looked up): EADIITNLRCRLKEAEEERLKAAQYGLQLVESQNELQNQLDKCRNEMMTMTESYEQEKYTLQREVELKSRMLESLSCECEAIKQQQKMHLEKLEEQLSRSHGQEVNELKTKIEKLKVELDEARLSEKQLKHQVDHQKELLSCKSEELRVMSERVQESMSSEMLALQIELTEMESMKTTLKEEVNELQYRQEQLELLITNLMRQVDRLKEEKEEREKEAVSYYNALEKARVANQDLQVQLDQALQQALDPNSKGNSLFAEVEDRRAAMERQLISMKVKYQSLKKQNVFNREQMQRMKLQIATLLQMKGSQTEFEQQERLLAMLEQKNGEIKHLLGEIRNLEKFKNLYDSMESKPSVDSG

T5 sequence (Q8TD16 2-422): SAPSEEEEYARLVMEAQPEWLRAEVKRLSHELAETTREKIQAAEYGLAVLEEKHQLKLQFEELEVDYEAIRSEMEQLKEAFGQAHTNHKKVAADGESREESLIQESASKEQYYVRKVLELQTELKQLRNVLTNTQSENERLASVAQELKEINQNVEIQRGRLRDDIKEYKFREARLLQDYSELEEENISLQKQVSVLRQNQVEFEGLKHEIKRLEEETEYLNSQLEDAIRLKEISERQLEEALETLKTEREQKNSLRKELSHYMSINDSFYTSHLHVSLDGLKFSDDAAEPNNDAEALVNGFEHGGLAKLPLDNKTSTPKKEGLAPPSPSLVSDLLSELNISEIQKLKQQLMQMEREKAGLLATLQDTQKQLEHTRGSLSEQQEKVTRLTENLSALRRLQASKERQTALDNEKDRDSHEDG

| Binder | binding result (NIN(1–693)::Strep-tag II) | binding result [1] | Kd [2] | koff [2] | kon [2] | binding result [3] | binding result [4] | binding result [5] | other results |
| --- | --- | --- | --- | --- | --- | --- | --- | --- | --- |
| B1 | binds | binds | 1.18 µM | 0.00101 s⁻¹ | 872 M⁻¹ s⁻¹ | – | – | – | – |
| B2 | – | – | 1.67 µM | 0.000996 s⁻¹ | 606 M⁻¹ s⁻¹ | – | – | – | – |
| B3 | binds | binds | – | – | – | binds | binds | – | – |
| B4 | – | – | – | – | – | binds | binds | binds | – |
| B5 | – | – | – | – | – | binds | binds | binds | – |
| B6 | – | – | – | – | – | – | – | – | Kd [6]: 0.7 µM; Kd [7]: 5.4 µM |
